Data set [1] concerns MS2 coat protein. Nature of the data set: apparent KD of MS2 coat protein; designed switch direction (-1 OFF switch, 1 ON switch): 1; higher = weaker reporter binding. Particulars: Eterna round: R98. The procedure: (§1)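 RNA-MaP: designed FMN/MS2 RNA switches (84 nt design region) are transcribed on-chip within common flanks and titrated with SNAP-549-labelled MS2 coat protein (about 1-3000 nM) in 100 mM Tris pH 7.5, 80 mM KCl, 4 mM MgCl2, without or with 200 uM FMN. Median apparent KD per design; activation ratio = KD,OFF / KD,ON.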

Data set [2] concerns MS2 coat protein. The data set is described as follows: apparent KD of MS2 coat protein; higher = weaker reporter binding. Particulars: Eterna round: R101. The protocol: as §1

Regarding “GCAGAAGGUGCGGAGGAUCACCCUGUAAGGAUAUGCAUUAGCAAGGAUAUACAGAGGAUCACCCUGUAGAAGGUGCACUACAAA [pwkr2 ssNG3 DX.5]”, the “apparent KD of MS2 coat protein” value in data set [1] (input ligand: FMN 200 uM) stood at 0.525 µM; in data set [1] (input ligand: none), 1.89 µM.

“UGGACCAAUACAGGAUAUGGUGACGCACAUGAGGAUCACCCAUGUCCGCAGCGUGCUCAGCACGCCCAGAAGGGUAUUGAUUCA [Tereriesti]”: the “apparent KD of MS2 coat protein” value in data set [1] (input ligand: FMN 200 uM) was found to be 0.0745 µM; in data set [1] (input ligand: none) it was 0.671 µM.

As to “GUAGCAUACCGAGGAUAUUCAUAUAAUAAAUAAACAUGAGGAUCACCCAUGUGGCGAAAGCCUAGGGAGAAGGCGGAAUGCUAU [salish99_SSNG2_r2_110]”, the results for the “apparent KD of MS2 coat protein” value in data set [1] (input ligand: FMN 200 uM) and in data set [1] (input ligand: none) were 0.0242 µM and 0.171 µM, respectively.

In the case of “CUAAUUUAUUGAGGAUAUGCACAGGAUCACCGUGUAGAAGGCAUCAGGGAGAAGGUGCAGAGGAUCACCCUGUAAGGAUAUCAA [pwkr2 ssNG1 DX.3]”, the “apparent KD of MS2 coat protein” value in data set [1] (input ligand: FMN 200 uM) turned out to be 0.105 µM; in data set [1] (input ligand: none) it was 0.231 µM.

“AAUAAAAUUCUAGGAUAUGACUCCGAAACGGAGUCAGAAGGAGGAUCACCCUUUCAAAGCUCAGCGUCGAAAGACGCUGAGCAA [#SharedSequence - ExNG1-19] (puzzle (switch architecture): Exclusion NG 1)”: the “apparent KD of MS2 coat protein” value in data set [2] (input ligand: FMN 200 uM) is 1.16 µM; in data set [2] (input ligand: none) it was 0.155 µM.

“CGCUAUUACAUGAGGAUCACCCAUGUAUAUAUGGGAUUUUCGUAGGAUAUGCAGAAGAUUAAAGUGCAGAAGGACGGAAUAGCG [JR #DistanceClose #Static #NP SSNG3 Sub066] (puzzle (switch architecture): Same State NG 3)”: the “apparent KD of MS2 coat protein” value in data set [2] (input ligand: FMN 200 uM) stood at 0.0319 µM; in data set [2] (input ligand: none), 0.0469 µM.

On to “AGCUAUGACAUGAGGAUCACCCAUGUAUACAUGGGAUUGACGUAGGAUAUGCUGAAGAUUAAAGUGCAGAAGGACGGCUUAGCG [JR #DistanceFar #Hairpin #NP SSNG3 Sub065] (puzzle (switch architecture): Same State NG 3)”, for which the figures for the “apparent KD of MS2 coat protein” value in data set [2] (input ligand: FMN 200 uM) and in data set [2] (input ligand: none) were 0.512 µM and 1.25 µM, respectively.

In the case of “UCUUAAUUGUAGAAGGGUGACAUGAGGAUCACCCAUGUGCACGCGCGAUUUACGGCGCGCGUGCCACAGGAUAUACAGUUGGGU [Erinquve] (puzzle (switch architecture): Inverted Same State NG 2)”, the “apparent KD of MS2 coat protein” value is 0.0121 µM in data set [2] (input ligand: FMN 200 uM) and 0.0411 µM in data set [2] (input ligand: none).

“GCCAUCGCAUGAGGAUAUGCUCGGGUUUCCCGAGCAGAAGGCAUGUCAUAAGACAUGAGGAUCACCCAUGUAGUUAAGAUGGCA [#HiddenHairpinInALoop - Mat - Same State NG 1 - JL mod - D3] (puzzle (switch architecture): Same State NG 1)”: the “apparent KD of MS2 coat protein” value in data set [2] (input ligand: FMN 200 uM) amounted to 0.0127 µM; in data set [2] (input ligand: none), 0.289 µM.

With “AAAGAUUUUUAAGGAUAUCAGUGGCAAAGCCACUGAGAAGGUGAGGAUCACCCACCUACGUGACGCUGGAAACAGCGUCACGAA [#SharedSequence ExNG1 - 25] (puzzle (switch architecture): Exclusion NG 1)”, the “apparent KD of MS2 coat protein” value in data set [2] (input ligand: FMN 200 uM) is 0.0127 µM; in data set [2] (input ligand: none), 0.013 µM.

As to “CCUGCACCUCAAGGAUAUCCAGUCGUUUCGACUGGAGAAGGUGAGGAUCACCCAUCUAGCCUGACGUUUGUCAGGCAUGCAGGU [#AddUracilToBrourdLoops 5 - Jieux - Exclusion NG1] (puzzle (switch architecture): Exclusion NG 1)”, the “apparent KD of MS2 coat protein” value in data set [2] (input ligand: FMN 200 uM) was 0.929 µM; in data set [2] (input ligand: none), 0.398 µM.

Turning to “UUUAGUUUGUAGAAGGGUGACAUGAGGAUCACCCAUGUGCGUCGCCUGAAAGACCAGGGUACGCCACAGGAUAUACAAAGUAAA [Tiveedbila] (puzzle (switch architecture): Inverted Same State NG 2)”, the entries for the “apparent KD of MS2 coat protein” value in data set [2] (input ligand: FMN 200 uM) and in data set [2] (input ligand: none) were 0.0768 µM and 0.0396 µM, respectively.

Regarding “CCGACGUUUCAGAAGGCACUCGCAUAAUGCGAGUGAGGAUAUGAGGAUCACCCAUAUCAUCGUCGGAGUCACCGAAACGGUGAC [#SharedSequence - IEx NG 3-2] (puzzle (switch architecture): Inverted Exclusion NG 1)”, the “apparent KD of MS2 coat protein” value is 0.0124 µM in data set [2] (input ligand: FMN 200 uM) and 0.00789 µM in data set [2] (input ligand: none).

With “AAUUAAAUCCUAGGAUAUGACUCCGAAACGGAGUCAGAAGGAGGAUCACCCUUUCAAAGCUCAGCGUCGAAAGACGCUGAGCAA [#SharedSequence - ExNG1-17] (puzzle (switch architecture): Exclusion NG 1)”, the “apparent KD of MS2 coat protein” value in data set [2] (input ligand: FMN 200 uM) is 0.0829 µM; in data set [2] (input ligand: none), 0.649 µM.

On to “GCAGCUAAUGCAGGAUAUCAGCACGUGUAGUGCUGAGAAGGGCACAUGAGGAUCACCCAUGUGAUCAAUUAAUAUUAAUGCUGC [jl-eng1-3.00 #ENG1/11-B3_NECK] (puzzle (switch architecture): Exclusion NG 1)”, for which the “apparent KD of MS2 coat protein” value in data set [2] (input ligand: FMN 200 uM) was 0.0416 µM; in data set [2] (input ligand: none), 0.013 µM.

Consider “GGUCGUCACAUUAACAUGAGGAUCACCCAUGUCAAAAGACAUGAGGAUAUGCAUCCUAAUUGGAUGCAGAAGGCAUGGACGACC (puzzle (switch architecture): Same State NG 3)”, for which the “apparent KD of MS2 coat protein” value in data set [2] (input ligand: FMN 200 uM) was determined as 0.0125 µM; in data set [2] (input ligand: none), 0.216 µM.

Turning to “AUCAGCUCGUGAGGAUAUACGUCACUGCGUCAGCAGUGUGGUAAGAUCACAUGAGGAUCACCCAUGUAGAAGGCACGAGCUGAU [#FlippingAptamerGcClosingBasepair - Ex NG2 #82] (puzzle (switch architecture): Exclusion NG 2)”, the “apparent KD of MS2 coat protein” value came out at 0.539 µM in data set [2] (input ligand: FMN 200 uM) and 0.0236 µM in data set [2] (input ligand: none).

Turning to “UCAUUUAUCACAGGAUAUAUUAGUAUACAGUUGUUUGGUUAUUACAUAUUAAUAGAAGGGUGAAACAUGAGGAUCACCCAUGUA [S-loop S-stateNG1 03] (puzzle (switch architecture): Small Loop Same State NG 1)”, the “apparent KD of MS2 coat protein” value in data set [2] (input ligand: FMN 200 uM) stood at 0.113 µM; in data set [2] (input ligand: none) it was 0.367 µM.

With “UAAAUAAAUCCUAGAGGAUCACCCUAGGAUAUCACCGUCGAGGUGCCAUAAUGGCACCUCGACGGUGAGAAGGAGGAAAAUAAA [#SharedSequence - SLExNG3: 4] (puzzle (switch architecture): Small Loop Exclusion NG 3)”, the “apparent KD of MS2 coat protein” value worked out at 0.00664 µM in data set [2] (input ligand: FMN 200 uM) and 0.00646 µM in data set [2] (input ligand: none).

On to “GGCAGCACUUAGAAGGGAGUGCGAUAAUCGCACUCAGGAUAUGAGGAUCACCCAUAUCAAGCUGCCACUGAGGCAAAGCCUCAG [#SharedSequence - IEx NG 4-1] (puzzle (switch architecture): Inverted Exclusion NG 1)”, for which the entries for the “apparent KD of MS2 coat protein” value in data set [2] (input ligand: FMN 200 uM) and in data set [2] (input ligand: none) were 0.00942 µM and 0.0106 µM, respectively.

On to “ACACAUGAGGAUCACCCAUGUAGCCGGCGUCUGCGCCAGCCACAGGAUAUACGGCAACACAAGCCGUAGAAGGGUGAUAAACAC [Lalearledi] (puzzle (switch architecture): Same State NG 3)”, for which the entries for the “apparent KD of MS2 coat protein” value in data set [2] (input ligand: FMN 200 uM) and in data set [2] (input ligand: none) were 0.0339 µM and 0.0491 µM, respectively.

Consider “UAUAAUCUUUAAGGAUAUCAGUGGCUUUGCCACUGAGAAGGUGAGGAUCACCCACCUACGUGACCCUGGUUUCAGGGUCACGAU [#AddUracilToBrourdLoops 10 - Jieux - Exclusion NG1] (puzzle (switch architecture): Exclusion NG 1)”, for which the “apparent KD of MS2 coat protein” value amounted to 0.0116 µM in data set [2] (input ligand: FMN 200 uM) and 0.01 µM in data set [2] (input ligand: none).

Take “CGCAUAGACAUGAGGAUCACCCAUGUAUAAAUAGGAUUAACGUAGGAUAUGCAGAAGAUUAAAGUGCAGAAGGACGGCUUUGCG [JR #DistanceFar #NP SSNG3 Sub070] (puzzle (switch architecture): Same State NG 3)”: the “apparent KD of MS2 coat protein” value in data set [2] (input ligand: FMN 200 uM) amounted to 0.00752 µM; in data set [2] (input ligand: none), 0.0115 µM.

For “UCAGUAGAGUCAGGAUAUACAAAAGGCGAUCCAUACAUGAGGAUCACCCAUGUAGAAGGGACUCUACUGUAAGUCGGAAACGAC [#StaticStemDeletion - Eli x2 4.003] (puzzle (switch architecture): Small Loop Exclusion NG 1)”, the “apparent KD of MS2 coat protein” value in data set [2] (input ligand: FMN 200 uM) is 0.0116 µM; in data set [2] (input ligand: none), 0.165 µM.

Take “GGGUACAUCGGAGGAUAUCAUGUAAAUACAUGAGGAUCACCCAUGUCGAUGGAGACAUGGGAGAUUGAGAAGGCCGAUGUACCG (puzzle (switch architecture): Same State NG 2)”: the “apparent KD of MS2 coat protein” value was 0.0317 µM in data set [2] (input ligand: FMN 200 uM) and 0.0225 µM in data set [2] (input ligand: none).

In the case of “AGAGCUGCUCAGAAGGAGGAUCACCCUUUCGAAAGAAAUACGGAGGCUGAAAAGCCUCCGAGAUUUUAGGAUAUGAGCAGCUCA [#SharedSequence - IExNG2: 8] (puzzle (switch architecture): Inverted Exclusion NG 2)”, the “apparent KD of MS2 coat protein” value worked out at 0.0891 µM in data set [2] (input ligand: FMN 200 uM) and 0.0745 µM in data set [2] (input ligand: none).

As to “GGGUACAUCGGAGGAUAUCAUGUAAAUACAUGAGGAUCACCCAUGUCGAUGGAGACAUCGGAGAUUGAGAAGGCCGAUGUACCG (puzzle (switch architecture): Same State NG 2)”, the “apparent KD of MS2 coat protein” value in data set [2] (input ligand: FMN 200 uM) came to 0.00842 µM; in data set [2] (input ligand: none), 0.159 µM.

“CUGGUUGUCGUAGGAUAUGUAGGAUAUUCCUACAUGAGGAUCACCCAUGUUCGCAUGGAAGAAGGACAGAAGGACGAUGACCAG [salish99_SSNG2_013 #endbits investigation] (puzzle (switch architecture): Same State NG 2)”: the “apparent KD of MS2 coat protein” value was found to be 0.00922 µM in data set [2] (input ligand: FMN 200 uM) and 1.32 µM in data set [2] (input ligand: none).
